We go through 2 molecules from US20240261333A1 (published 2024).

Holding throughout (experiment): co-IP with anti-FLAG, N-FLAG B3GNT2, mass spectrometry
Test [1] addresses T1, FLG (human, UniProt P20930 1-4061, limits assumed).
T1 construct: also called NP_002007.1

Test [2] has as its target T2, S100A7 (human, UniProt P31151 2-101).
T2 construct: also called NP_002954.2
T2 sequence (looked up): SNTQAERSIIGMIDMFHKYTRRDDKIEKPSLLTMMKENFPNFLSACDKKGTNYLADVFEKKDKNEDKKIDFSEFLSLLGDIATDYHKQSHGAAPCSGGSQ

Test [3] deals with RPL23 (human, UniProt P62829 1-140).
The target in test [4] is T3, EIF3A (human, UniProt Q14152 2-1382).
T3 construct: also called NP_003741.1

In test [5] the target is RPS26 (human, UniProt P62854 2-115).
For test [6], the target named is T4, CPSF7 (human, UniProt Q8N684 1-471).
T4 construct: also called NP_001129512.1 (+5)
T4 sequence (looked up): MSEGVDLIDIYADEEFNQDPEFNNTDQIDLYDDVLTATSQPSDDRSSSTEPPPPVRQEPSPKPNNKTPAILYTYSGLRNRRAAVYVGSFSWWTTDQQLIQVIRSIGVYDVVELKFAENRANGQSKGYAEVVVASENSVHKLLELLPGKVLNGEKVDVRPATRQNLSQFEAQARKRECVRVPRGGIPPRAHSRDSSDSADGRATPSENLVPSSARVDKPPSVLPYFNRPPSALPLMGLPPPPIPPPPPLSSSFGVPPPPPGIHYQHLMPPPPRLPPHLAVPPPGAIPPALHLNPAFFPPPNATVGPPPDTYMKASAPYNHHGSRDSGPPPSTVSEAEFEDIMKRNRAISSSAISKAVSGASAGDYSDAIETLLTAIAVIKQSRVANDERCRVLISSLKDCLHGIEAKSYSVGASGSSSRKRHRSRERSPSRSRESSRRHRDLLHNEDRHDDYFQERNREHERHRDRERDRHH

Test [7] addresses T5, TPM2 (human, UniProt P07951-2 1-284, limits assumed).
T5 construct: also called NP_001288155.1

Test [8] addresses T6, TM9SF1 (human, UniProt O15321-2 28-489, limits assumed).
T6 construct: also called NP_001014842.1 (+1)

For test [9], the target named is T7, TTC13 (human, UniProt Q8NBP0-2 1-806, limits assumed).
T7 construct: also called NP_001116307.2 (+5)
T7 sequence (looked up): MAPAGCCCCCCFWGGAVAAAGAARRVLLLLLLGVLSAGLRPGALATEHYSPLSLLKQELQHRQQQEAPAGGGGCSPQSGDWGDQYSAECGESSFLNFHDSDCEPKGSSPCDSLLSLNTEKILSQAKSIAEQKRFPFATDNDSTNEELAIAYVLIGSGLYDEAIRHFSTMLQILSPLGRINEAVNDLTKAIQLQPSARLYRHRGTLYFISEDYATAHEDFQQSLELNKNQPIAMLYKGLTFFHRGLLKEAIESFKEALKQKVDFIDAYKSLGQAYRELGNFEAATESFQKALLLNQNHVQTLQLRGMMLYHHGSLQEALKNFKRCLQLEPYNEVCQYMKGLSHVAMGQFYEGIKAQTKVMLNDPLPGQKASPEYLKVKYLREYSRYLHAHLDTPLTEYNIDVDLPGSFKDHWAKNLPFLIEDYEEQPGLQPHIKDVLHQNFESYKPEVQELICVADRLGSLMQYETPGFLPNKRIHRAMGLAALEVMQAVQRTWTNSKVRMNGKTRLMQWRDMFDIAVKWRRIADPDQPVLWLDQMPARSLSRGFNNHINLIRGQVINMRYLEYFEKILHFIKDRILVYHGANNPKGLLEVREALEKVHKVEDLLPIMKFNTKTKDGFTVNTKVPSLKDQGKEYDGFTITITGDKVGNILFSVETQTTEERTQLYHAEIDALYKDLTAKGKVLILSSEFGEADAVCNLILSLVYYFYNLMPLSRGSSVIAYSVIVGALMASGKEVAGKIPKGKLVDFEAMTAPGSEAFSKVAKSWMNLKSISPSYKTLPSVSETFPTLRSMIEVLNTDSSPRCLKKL

B1: N-terminal FLAG tagged B3GNT2 (enzyme, human, UniProt Q9NY97 1-397, looked up)
chain: MSVGRRRIKLLGILMMANVFIYFIMEVSKSSSQEKNGKGEVIIPKEKFWKISTPPEAYWNREQEKLNRQYNPILSMLTNQTGEAGRLSNISHLNYCEPDLRVTSVVTGFNNLPDRFKDFLLYLRCRNYSLLIDQPDKCAKKPFLLLAIKSLTPHFARRQAIRESWGQESNAGNQTVVRVFLLGQTPPEDNHPDLSDMLKFESEKHQDILMWNYRDTFFNLSLKEVLFLRWVSTSCPDTEFVFKGDDDVFVNTHHILNYLNSLSKTKAKDLFIGDVIHNAGPHRDKKLKYYIPEVVYSGLYPPYAGGGGFLYSGHLALRLYHITDQVHLYPIDDVYTGMCLQKLGLVPEKHKGFRTFDIEEKNKNNICSYVDLMLVHSRKPQEMIDIWSQLQSAHLKC
notes: FLAG-tagged ORF overexpressed in cells; pulled down from lysate with mouse anti-FLAG; also called N-FLAG B3GNT2; N-term FLAG; not shown: N-terminal FLAG tag
On to B1, for which the “co-IP mass spectrometry count” value was 29 in test [1]; 3 in [2]; 7 in [3]; 2 in [4]; 6 in [5].

B2: N-terminal FLAG tagged B3GNT2 (enzyme, human, UniProt Q9NY97 1-397, looked up)
chain: MSVGRRRIKLLGILMMANVFIYFIMEVSKSSSQEKNGKGEVIIPKEKFWKISTPPEAYWNREQEKLNRQYNPILSMLTNQTGEAGRLSNISHLNYCEPDLRVTSVVTGFNNLPDRFKDFLLYLRCRNYSLLIDQPDKCAKKPFLLLAIKSLTPHFARRQAIRESWGQESNAGNQTVVRVFLLGQTPPEDNHPDLSDMLKFESEKHQDILMWNYRDTFFNLSLKEVLFLRWVSTSCPDTEFVFKGDDDVFVNTHHILNYLNSLSKTKAKDLFIGDVIHNAGPHRDKKLKYYIPEVVYSGLYPPYAGGGGFLYSGHLALRLYHITDQVHLYPIDDVYTGMCLQKLGLVPEKHKGFRTFDIEEKNKNNICSYVDLMLVHSRKPQEMIDIWSQLQSAHLKC
notes: FLAG-tagged ORF overexpressed in A375 cells; pulled down from the lysate with mouse anti-FLAG; also called N-FLAG B3GNT2; N-term FLAG; not shown: N-terminal FLAG tag
B2: the “co-IP/MS count, N-term FLAG” value came out at 12 in test [6], 0 in [7], 0 in test [8] and 0 in test [9].
